From FireProtDB (doi:10.1111/j.1399-3011.1982.tb00898.x)

B1: Tryptophan synthase alpha chain, P0A877 (parent)
chain: MERYESLFAQLKERKEGAFVPFVTLGDPGIEQSLKIIDTLIEAGADALELGIPFSDPLADGPTIQNATLRAFAAGVTPAQCFEMLALIRQKHPTIPIGLLMYANLVFNKGIDEFYAQCEKVGVDSVLVADVPVEESAPFRQAALRHNVAPIFICPPNADDDLLRQIASYGRGYTYLLSRAGVTGAENRAALPLNHLVAKLKEYNAAPPLQGFGISAPDQVKAAIDAGAAGAISGSAIVKIIEQHINEPEKMLAALKVFVQPMKAATRS

Variants of: B1
Conditions: Escherichia coli (strain K12), Thermal, DSC, structure 1WQ5, whole UniProt chain shown
[1] = pH 7, 25 °C, potassium phosphate 1 mM, reversible: yes(<50%)
[2] = pH 7, potassium phosphate 1 mM, reversible: yes(<50%)
[3] = pH 9.3, 25 °C, sodium tetraborate 1 mM, reversible: yes(>70%)
[4] = pH 9.3, sodium tetraborate 1 mM, reversible: yes(>70%)

Variant | heat capacity change of unfolding [1] | unfolding free energy [1] | Tm [2] | heat capacity change of unfolding [2] | heat capacity change of unfolding [3] | unfolding free energy [3] | Tm [4] | heat capacity change of unfolding [4]
MERYESLFAQLKERKEGAFVPFVTLGDPGIEQSLKIIDTLIEAGADALSLGIPFSDPLADGPTIQNATLRAFAAGVTPAQCFEMLALIRQKHPTIPIGLLMYANLVFNKGIDEFYAQCEKVGVDSVLVADVPVEESAPFRQAALRHNVAPIFICPPNADDDLLRQIASYGRGYTYLLSRAGVTGAENRAALPLNHLVAKLKEYNAAPPLQGFGISAPDQVKAAIDAGAAGAISGSAIVKIIEQHINEPEKMLAALKVFVQPMKAATRS [E49S] | 2.9 kcal/mol/K | 7.7 kcal/mol | 60.5 °C | 2.9 kcal/mol/K | 2.9 kcal/mol/K | 7.1 kcal/mol | 58.6 °C | 2.9 kcal/mol/K
MERYESLFAQLKERKEGAFVPFVTLGDPGIEQSLKIIDTLIEAGADALQLGIPFSDPLADGPTIQNATLRAFAAGVTPAQCFEMLALIRQKHPTIPIGLLMYANLVFNKGIDEFYAQCEKVGVDSVLVADVPVEESAPFRQAALRHNVAPIFICPPNADDDLLRQIASYGRGYTYLLSRAGVTGAENRAALPLNHLVAKLKEYNAAPPLQGFGISAPDQVKAAIDAGAAGAISGSAIVKIIEQHINEPEKMLAALKVFVQPMKAATRS [E49Q] | 2.9 kcal/mol/K | 7.4 kcal/mol |  |  | 2.9 kcal/mol/K | 8.4 kcal/mol | 62.4 °C | 2.9 kcal/mol/K
